In experiment [1] the test system is oligodendrocyte precursor cells in demyelination model mice. The experiment is described as follows: PDGFRα and Ki67 double-positive cells in spinal cord of demyelination model mice, osmotic pump administration (Example 4). Format: in vivo, C57BL/6j mice. Conditions: continuous local administration by osmotic pump for 7 days, 350 ng in total, vs saline, p<0.05, FIG. 4. How it is done:
Demyelination model mice were produced by topically administering 2 μl per mouse of lysophosphatidylcholine diluted to 1% (w/v) in saline solution into the spinal cord of C57BL/6j mice (female, 7-week-old).
Osmotic pumps (ALZET) were filled with an FGF21-containing solution prepared by diluting recombinant FGF21 (R&D) to 4.17 μg/ml in saline solution, a cannula was attached to the tip of each pump, and the tip was attached to the site of lysophosphatidylcholine administration in each demyelination model mouse to continuously administer FGF21. After 7 days, the demyelination model mice were anesthetized and transcardially perfused with saline solution, and spinal cord tissue was harvested. Ultimately, 350 ng of FGF21 was administered. The spinal cord tissue was fixed with a 4% paraformaldehyde solution, which was then replaced with a 30% sucrose solution, and subsequently, frozen thin sections were prepared. The sections were immunostained using an anti-PDGFRα antibody and an anti-Ki67 antibody, and the number of PDGFRα and Ki67 double-positive cells in the sections was counted. PDGFRα is a marker for oligodendrocyte precursor cells, and Ki67 is a cell proliferation marker. As a control, saline solution was used, and the number of PDGFRα and Ki67 double-positive cells was counted under the same conditions as those described above. […]

Experiment [2] shares this test system. The experiment is described as follows: PDGFRα and Ki67 double-positive cells in spinal cord of demyelination model mice, subcutaneous administration (Example 5). The experiment is classed as in vivo, C57BL/6j mice. As to conditions: subcutaneous 500 ng/kg body weight per day for 2 weeks, vs saline with 0.5% BSA, FIG. 5. How it is done:
Demyelination model mice were produced by performing a laminectomy at the 11th and 12th thoracic vertebrae in C57BL/6j mice (female, 7-week-old), and topically administering 2 μl of lysophosphatidylcholine diluted to 1% (w/v) in saline solution at a depth of 2 mm into the midline of the spinal column.
An FGF21-containing solution prepared by diluting recombinant FGF21 (R&D) in saline solution was subcutaneously administered for 2 weeks at a dose of 500 ng/kg body weight of FGF21 per day. After 2 weeks, the demyelination model mice were anesthetized and transcardially perfused with saline solution, and spinal cord tissue was harvested. The harvested spinal cord tissue was fixed with a 4% paraformaldehyde solution, which was then replaced with a 30% sucrose solution, and subsequently, frozen thin sections were prepared. The sections were immunostained using an anti-PDGFRα antibody and an anti-Ki67 antibody, and the number of PDGFRα and Ki67 double-positive cells in the sections was counted. As a control, a saline solution containing 0.5% BSA was used, and the number of PDGFRα and Ki67 double-positive cells was counted under the same conditions as those described above. This experiment conducted the study using five or six mice for each group.

For experiment [3], the system named is myelin sheath in demyelination model mice. The experiment is described as follows: MBP positive regions in spinal cord of demyelination model mice (Example 6). As to conditions: subcutaneous 500 ng/kg per day for 2 weeks from 7 days after lysophosphatidylcholine, one mouse per group, FIG. 6. The experiment is classed as in vivo, C57BL/6j mice. How it is done:
Demyelination model mice were created as in Example 5 above. An FGF21-containing solution prepared by diluting recombinant FGF21 (R&D) in saline solution was subcutaneously administered for 2 weeks at a dose of 500 ng/kg body weight of FGF21 per day, to the demyelination model mice after 7 days from the administration of lysophosphatidylcholine. After 2 weeks, the demyelination model mice were anesthetized and transcardially perfused with saline solution, and spinal cord tissue was harvested. Sections were prepared from the harvested spinal cord tissue as in Example 5 above and then immunostained using an anti-MBP antibody, and MBP positive regions in the sections were counted. As a control, a saline solution containing 0.5% BSA was used, and MBP positive regions were counted under the same conditions as those described above. This experiment conducted the study using one mouse for each group.

The test system of experiment [4] is human oligodendrocyte precursor cells. The experiment is described as follows: BrdU uptake by human oligodendrocyte precursor cells (Example 8). Format: cell-based. On the set-up: dose or concentration left out as unconfirmed. Conditions: recombinant human FGF21, human cells, vs saline control; significant difference; FIG. 8. The procedure:
Recombinant human FGF21 (R&D) was diluted in saline solution immediately before use to prepare an FGF21-containing solution. Human oligodendrocyte precursor cells (ScienCell) were also prepared.
Initially, the oligodendrocyte precursor cells were seeded in a poly-L-lysinde-coated plastic tissue culture dish (Greiner Bio-One), and cultured in the following medium for 1 day (37° C., 5% CO2). The medium used was DMEM containing 4 mM L-gludamine (Sigma), 1 mM sodium pyruvate (Sigma), 0.1% bovine serum albumin (Sigma), 50 μg/ml apo-Transferrin (Sigma), 5 μg/ml insulin (Sigma), 30 nM sodium selenite (Sigma), 10 nM biotin (Sigma), 10 nM hydrocortisone (Sigma), 10 ng/ml Platelet-Derived Growth Factor-AA (Peprotech), 10 ng/ml basic fibroblast growth factor (Peprotech) 1 (v/v) %, and penicillin/streptomycin (Life Technologies). […] BrdU was subsequently added and cultured at 37° C. for 24 hours, and then the cells were collected; the BrdU uptake was then detected using the cell proliferation ELISA, BrdU colorimetric kit (Roche). As a control, an equivalent amount of saline solution was used instead of the FGF21-containing solution, and the BrdU uptake was measured under the same conditions as those described above. […]

The subject of experiment [5] is oligodendrocyte precursor cells in brain contusion model mice. The experiment is described as follows: PDGFRα and Ki67 double-positive cells in brain tissue of brain contusion model mice (Example 9). The experiment is classed as in vivo, C57BL/6j mice. Conditions: continuous intraventricular administration 50 ng/kg body weight per day for 1 week, vs vehicle, FIG. 9. How it is done:
Anesthetized C57BL/6j mice (female, 7-week-old) were fixed onto a brain stereotaxic apparatus (Narishige). A midline incision was made in the scalp, the fascia was removed, and the skull was exposed. A craniotomy was performed through a 4-mm diameter circle centered at 2 mm lateral to the bregma. A 3-mm diameter chip was connected to the Pneumatic Impact Device (AmScien Instruments) to create a brain contusion. The parameters for imparting impact were as follows: speed: […], depth: 1 mm, and duration: 120 msec.
Osmotic pumps (ALZET) were filled with an FGF21-containing solution prepared by diluting recombinant FGF21 (R&D) in saline solution. A cannula was attached to the tip of each osmotic pump, and the cannula tip was further connected to a Brain infusion kit (ALZET) to continuously administer the FGF21-containing solution into the ventricles. The FGF21-containing solution was administered for 1 week at a dose of 50 ng/kg body weight of FGF21 per day. […] The sections were immunostained using an anti-PDGFRα antibody and an anti-Ki67 antibody, and the number of PDGFRα and Ki67 double-positive cells in the sections was counted. As a control, a saline solution containing 0.5% BSA (Vehicle) was used, and the number of PDGFRα and Ki67 double-positive cells was counted under the same conditions as those described above. […]

B1: FGF21: Recombinant fibroblast growth factor 21 (R&D); the claimed active ingredient promoting oligodendrocyte precursor cell proliferation (protein, listed as Homo sapiens)
chain: MDSDETGFEHSGLWVSVLAGLLLGACQAHPIPDSSPLLQFGGQVRQRYLYTDDAQQTEAHLEIREDGTVGGAADQSPESLLQLKALKPGVIQILGVKTSRFLCQRPDGALYGSLHFDPEACSFRELLLEDGYNVYQSEAHGLPLHLPGNKSPHRDPAPRGPARFLPLPGLPPALPEPPGILAPQPPDVGSSDPLSMVGPSQGRSPSYAS
Regarding B1, the “number of PDGFRα and Ki67 double-positive cells” value in experiment [1], in experiment [2] and in experiment [5] was “increased” throughout. In addition, the MBP positive regions entry in experiment [3] is recorded as “increased”. Besides, the “BrdU uptake by the oligodendrocyte precursor cells” value in experiment [4] is reported as “markedly increased”.

These data come from patent publication US10293026B2, “Agent for preventing or treating demyelinating disease” (Osaka University, priority 2014, dated 2019).
